According to a protein production outcome set (Wang et al. 2014):

Assay: label from the status in PepcDB records

| Sequence | protein production |
| --- | --- |
| MKHIHSYYSPNNLYNKIIEGLNNLGKDLSSVTPDDLQPVDEFHIRGDIATKELIELGNFTPDMHILDVGCGVGGSTRRLSHETGCHVTGIDLSDEYIDAAERLTQLLNMQARVKFNVGSALELPYADNTFDGAWSIQMNMNVEDKLGWLKEMYRVLKPGARAVLYEVCGHEEKTIYFPVPWAQDSSMSFLIPKEAFRDLIASTGFKIEVWNDKSDLAQKAFARMREPTGESTLPELGLHMLIGNDIKTKAYNMRRNLDDERISLIEILAIKPS | failed |
| MKHLPTTLLLSTLAITLSAQAHNLVPAPKQTQSVLIKNATVHTVIQGVLTNTDVLIENGKISALGPQLSTNTTASTQVVDASGKHLYPGLIALDTSLGLVEIEMVRPTVDNAEVGDVNPQISAASAYNPDSELLPTIRYNGITHAQIVPSGDGLAGQSVVVDLDAWTIEDALQPNEGQFHVYWPQIKRMPEDEKEKAKAIEKNQQAIDKLITAFEDGYRYFLSQNAQDTDNWPNLRWQAMLPLYQGKATLFAHADSVSQIEQVIALTKKYQFKLVIVGGYDAWRLASSLREVNASVIYPHTLSLPKRKDEPVDLPFKIPSLLANAGIPYALGFSSDWNSRNLPYAAGYSAAYGVTPEQALKSVTLDAAKLLGIADLGAIAVGYQGSVVLSDGDILDPMSSKIDAIWIEGRQIDLNNRHQQLYQKYLKR | failed |
| MKHLTVYFLLALQGVLFSFSLSAATPQNAIAYHDGNVRFSVLTDGVIRMEWSPSGSFTDDPSFVAIHRNLPVPKYTVQNKNATVVISTARMKLKYKKGQGPFTKDNLTITSAKGMFPFQWTPGTIQKGNLKGTDRTLDGFEGDHNIYSHQDMKLEDGLLSTDGWTLIDDSKNFLFDNSEWAWVKEREHKDGQDWYFMAYGHDYKAALKDFTVFAGKVPLPPRYAFGYWWSRYWSYSDKEMRQLVDNFHTYNIPLDVLVVDMDWHYTDPGFGGWTGWTWNRRLFPDPAKFLGYLKSNDLKITLNLHPADGVAPYEEKYPEMAQWMGVDTAKQERIPWVVSDKRFINGMFNKVLRPMEKQGVDFWWLDWQQWMYDKKVDSLSNTWWINYVFFSDMERNRDTRPMLYHRWGGLGNHRYQIGFSGDAVISWKSLEFQPYFTNCASNVLYGYWSHDIGGHMFKGGDKEILDPELFTRWMQYGALTPVMRTHSTKNSVLNKELWNFKGDYFEALRNSILFRYQLAPYIYTMARETYDNGISICRPMYYDYPEAKEAYDFKSEYMFGDQILVAPITTPMQNGLSTVKVWLPEGNDWFEWTTGTLLKGGQIIERSFTLTEYPVYVKAGSVLPLYNRVKNLNSNSEEIIVNIFPGENGSFTFYEDNGNDKYYANEYARTRMYTERKENHLTVTVGPRQGKYRNMPTDRQFKIKVLGSAIPETITINGNRAEYEYIGDELALLITIPQTACDQEKTIEIQYSTSIPELNDGIVSQFKRFSKAITALKYRDAGIVLTPTMGATEATSIALTYSPERFNELIETFKRNYSQMPEMLKEQKLNEANSQWFMKAIGWKK | failed |
| MKHTIGILGGMGPAATADMLEKFVELRHASCDQQHIPLIVSSIPDIPDRTACLLSGGPSPYRYLERYLHMLEDAGAECIVIPCNTAHYWFDDLQNVAKARMISILDATLGDIPPSARHVGLLATNATLATGLYQKKALARGLTLIQPEDAGQALVMQAIYTLKRGDKTAAQALLLPQIDSLIARGAQAIIMGCTEIPLIVAGHERAIACPMIDSTASLVRAAIRWYESWPDTRASLTGEQRLTA | not failed |
| MKHVDTEIPTEEQIHEAEKFGFHGQVQAAKIRFDRYFPGVLASITVAAAATFLSDHYGAPTMLFALLIGMAFRFLSEDESRALVGIQFASTTVLRIGVALLGMRITLGQIQSLGVKPVVMVFFSVLLTILFGLALSKMMGRGKRFGVLTGGSVGICGASAALAIAAVLPQDEYSERNTIFTVISITALSTLAMIAYPVVAQWFGLDHQAAGIFLGGTIHDVAQVVGAGYSVSEQTGDTATVIKLLRVSMLVPVVFILSLIFHKRNQKDGNAPRRTLLPPFIIFFVLFVGINSLGVVPKPATQFINDVSRWCLVTAIGALGMKTSLKSLFEVGWKPVSIMIAETVFLAVLVLGSVVWMS | failed |
| MKIAALYDIHGNYPALKEVLKQVKKLSPDLVVLGGDLIAGPMPLETLSLLKHVSTTFKTVGIMGNNDQDIVDIYAKKRVGLSRKATEQLTWIANQLSYKQVSFLRNLLPSISIGNYFFCHAVKNDNTTVFSPQQNKAYIETLFKGVQESYIICGHTHIQFELSLPNKKIINAGSIGMPFSNQFGAQWLWLDDNRIEYKRTIFNQQAAIQLISQTEYPFKNEFIANNLRSTISLSQGYSILNTLIRAQNAQHDLSLEHHHHHH | not failed |
| MKIADGVYVHFIPTQKYKTNRIVFRMTGSLNKQTIAKRALVSQMLATANQTYPTVQSFKERLASLYGTQLSTKVSTKGLTHSVDIELTYLKDFFIPMNTSLFWEVLGFLMDCLYNPLSIVAQYQNKVFDIEKQNLMTYLDVDTENNYYYSEVQGRELYFVNEALKVPKYGRVELVEAETSFTAYQEFQSMLTKDRIDIFMVGEFDDYQVLRGLHRFPLEGRQVDLQFSYNQSYSKVVKEKIETRQTSQSILQLGYQFPCQYGDKDYFALIVFNGMLGEFAHSALFTKIREKEGLAYSIGSQFDAFTGLLEIYAGIEKSNRNQAMRGIIRELNHIKLGRFSSSLFNQTKKIIRMNALLSEDHALTLVEQHFNKVIFGDKKISLEDWLDKIEKVTKKDVCRIARQVKLQSLFFLEGVS | failed |
| MKIAVMGYGTIGSGVVEVLEINKEKIAKRAGEPIEVKYVLDLREFPGTPIENKIVHDYKVIAEDPEIGIVVETMGGVEPAFTFVKAMLEAGKQVATSNKNLVAAKGAELIKVARDHGVNFQFEASVGGGIPIIRPLNKCLTADEIEEITGILNGTTNYMLTKMTEEGADFDEVLKDAQDKGYAEKDPTADIEGYDPCRKIAILTSLVAGQQVDFEDIHCEGITKITPEDIKYAKAMHRAIKLLASSRKVGDSYTCLVAPYMIDDTHPLSGVNGVFNGVFLRGNVLGDAMFYGSGAGKLPTASAVVADVVDMTKHQNTNIYIDWKPEKLTLVSYDDSVNSFFVRTDSPKSEVEAVFGHVDYIEDVVDGEYAFTTGDMTEKDFADKASKINVINRIRL | failed |
| MKICHRYIAWQVLTGMVIATAILLPLFSFFDLLDQLDDVGKGTYTTWDAFLYTVMLMPRRFIQIAPFIALLGTVGALGALAVNLELVAMRVAGLSPLMIGLAPVGIGGLLIASTIALEYFVAPQFQQQATILRAVALEQGAELGKGLGIWTRNERNILRIGEMLHKGRATDIEVIHFDGEGSMTAHVHAWYADIFDESLWKLHDVTIRTFSPDRITSRKAHILQWHSFLGPDDIATLTKSPESLTPIELVKHAEFLRATGQKADAYVMALWRKVGGAIMTIAMILVAIPFIFGSVREGLGGKLILAALMGISIYLFDQIIANIGLVFQLNPIVVSVVPGMVLIAVAAHWLLRRTF | failed |
| MKIDGETRSARKDREIIQAATAAFISKGYDGTSMEEIATKAGASKQTVYKHFTDKETLFGEVVLSTASQVNDIIESVTTLLSEAIFMEGGLQQLARRLIAVLMDEELLKLRRLIIANADRMPQLGRAWYEKGFERMLASTASCFQKLTNRGLIQTGDPYLAASHLFGMLLWIPMNEAMFTGSNRRSKAELERHADASVEAFLAVYGVQPK | not failed |
| MKIEKQVNDLRIIELEKELENNPFIPILYWELGLNYLISVGEEKAEEIWSLGLLQCFTSFDEGLLSLVGFIEQHIELNKNDKQTVLILWQQIIKIVPNYLAGHLNLLVVACELKVFSAEKLAYLGTVALINSIDSGCISQQEEELLLRATLSILEFPTALSLDFLRSSIPLLVNLPWCDAVMAFANSMVYDKQLFSYGVEIAEICLQYSPNNLFILNDLIRFYGLRKDQDALLRTARNLLNIFRQQDFEPDFGFYLSSRLLSAFMTGNDWEQVQSIASIFKDYFILLQNEKSVVLNNFLRDRFWGLGFSLLYLFDEPESNRRCLNFNASIFQQNLTENQNKTICQEENLPKKKQVSLKRIGYIAHTLRQHSVGWLCRWLFKYHDREKFEIFVYLIGQPEDELTENWIYPNVSKYYHFGRDKNEIIKQIKQDQIQILVDLDVLTHNITAQVLAHKPAPVQVSWLGSDASGLPAIDYFIVDPYVVPDDAEGYYREKLWRLPQTYLAVDGFEMGTPTLSREQLGIKPNTVIYLSVQNKIKSNPNILKLQLQILQSVPDSVFLIKGGGDNELIRAMVEQLAKEMGLDLHRIRFLPKDGDEMTHRANLSIADVVLDTYPYNGATTTLETLWMEVPLVTRVGKQFASRNSYTFLTQLNIREGLAWNDQEYVYWGTRFGLEKSLREKVKNELNLGKYKSKLWRAKDFTQELELAYEGMWNGDLD | failed |
| MKIFGTDGVRGKAGVKLTPMFVMRLGIAAGLYFKKHSQTNKILIGKDTRKSGYMVENALVSALTSIGYNVIQIGPMPTPAIAFLTEDMRCDAGIMISASHNPFEDNGIKFFNSYGYKLKEEEEKAIEEIFHDEELLHSSYKVGESVGSAKRIDDVIGRYIAHLKHSFPKHLNLQSLRIVLDTANGAAYKVAPVVFSELGADVLVINDEPNGCNINDQCGALHPNQLSQEVKKYRADLGFAFDGDADRLVVVDNLGNIVHGDKLLGVLGVYQKSKNALSSQAVVATNMSNLALKEYLKSQDLELKHCAIGDKFVSECMQLNKANFGGEQSGHIIFSDYAKTGDGLVCALQVSALVLESKQVSSVALNPFELYPQSLVNLNVQKKPPLESLKGYSALLKELDKLEIRHLIRYSGTENKLRILLEAKDEKLLESKMQELKEFFEGHLC | failed |
| MKIFRNPPLVMSGLTLGLFALGNLLKLYHPSLRHLLSIIALLLYLFLILSILKNLSQALEQIKHPLIASIFPTFFMSGMLLAGYIQTFPFLEDWVTLISLTIWWLAFLGNAGLIAYFTIKFVIPFHWEHVFPSWSVLYVGIAVATLTAPISGQYILGQIIFWTCLLLTLLILPLMTIKAYCIGLPETAKPNICTFCAPLSLLLAGYLKTFPPEQSPNTNFVWLLLLASQLLYFFVVLQLPVLLKREFNPGFSAFTFPFAISATALRSAGSYLHLQLPLFQLLVKLEELLASILVLFILYSYLRFLSKQEDLPSN | failed |
| MKIFRSIDEIREPLPSPVVTIGNFDGVHLGHREIFRRVKREAARLDGVSMVITFTPHPLKVLGLRKELRLINTYAEKELLIEASGIDCLLTIPFTAEFAAIGAERFVGEILVGRIGVKKLVIGYDYAFGRNREGDVAMLRRMGEEHGFEVEVLEQIASGETVYSSSAVRRMIAAGNVREVVSLIGRHYSVGGTVVHGRRRGKDLGFPTANLRTEKELIPAAGVYAVKVRVDDTIRDGACNIGNNPTFGNEEVTVEVHILDFDGDLYGKEIRVYFVDRVREELRYPDLNALKEGISRDVARCRELLAGVSIIEYRDYLGGDAA | failed |
| MKIGIIGAGNIGGTLARKFVAAGHSVKLAGSKSPDSIRELAENIGAEPVAAVEAVKDVEVIVLSIPFAKIPEVAGLFSTVPAEVVVIDTSNYYPQLGTRIPEVDDGELESVWAREQLGRPIIKAFNAIIAKTLADGGKPAGTDNRIAIPVAGDSLAGKAIAQQLLDDAGFDALDAGTIADSWRQQPGMPAYCTELPLAALHSALNVAVKGDAPHLRDALMAEFFGGDIPPSHETIVARNRAVSA | failed |
| MKIGRYEVCGLLGRGGMGVVYKVRQPVTGRVAALKLLKPADILVDLAGMDALREGFLHEATVMASLDHPHVAAVWDVDEAGGLPFFVMEYYCLNLGLLMGESYRVEAPTRRLPLERAVRYARQTLEALRRMHHEGIVHRDVKPFNIMVTGDDAVKLIDFGLSRLRGETRLSPRGVKVGSPYYAPPEQESAPDAVDARADLYPVGVMLFRMLTGVLPTDEERMKDGRIPRASALSDELDEGWDAFFDTAMAADPARRFPDAASMLAALARCEAAWRKQVEATCRLIPEQAAGPGDASDMRHDAGHESVQAGQTDETGQAGQAGQAGQAVTCEGAPAASGGVRCRPVKVGVHEARATFALDALWRPASAARQGLEARDDGTVSHAATGLQWETGGCDFPLTRDEAEAYVEARNALRFAGHDDWRLPTVDELLTLVDAGVTVGDPCVASVFAPLPDPLWTSDRKSYMASWFVSAAMGFVGWQDDTCRFGVRLVRGGSARCRE | failed |
